According to doi:10.1101/2024.11.16.623920:

Key:
Test in all cases: FRET or BRET
[1] = molecular target: CaGpi2-His6 (C. albicans Gpi2, GPI-GnT subunit, tagged with His6 at the C-terminus) (C. albicans) (UniProt Q5A6L6)
[2] = molecular target: CaGpi8 (C. albicans Gpi8, subunit of the GPI-transamidase) (C. albicans (endogenous in the cells))
[3] = molecular target: CaGpi3 (C. albicans Gpi3, GPI-GnT subunit) (C. albicans (endogenous in BWP17-derived cells))

| Molecule | spatial distance r (AP-FRET) [1] [nm] | spatial distance r (AP-FRET) [2] [nm] | spatial distance r (AP-FRET) [3] [nm] |
| --- | --- | --- | --- |
| CaRas1 (C. albicans Ras1) (natural protein) | 5.3 | – | – |
| CaArv1-V5 (C. albicans Arv1 tagged with V5 at its C-terminus) (natural protein) MICIECGYSNIDCLYSKYKSDYIKLSVCPECNKIADKYIEYDSVILFLDILLLKRQAYKHLAYNLTEMEMEIGSSTNFHINDNTNFKFFHTYRKLMKLIFMILSFEVYLTWANEEKLLIHSQLINLIFNQSVVYQYLFFIIKSSLENLILNLSLQLILRLGYKWGQGPQKINGNIRDKELFGYKTSVLLVTTMVSGSIRLFPILMFIWPYDNISITKPLINLIAFINIVEALRVVTSLGYVELILSLAFSIVIRNIVSKSLLVLIVRLFLDFNFTEVYYNEMYQLYSQIQTYIRWI | – | > 10 | 6.3 |
